Source: article PMC10943277 (The Journal of Cell Biology, 2024)

Target: T1, Sly1 (wild-type) (S. cerevisiae, UniProt P22213 1-666)
T1 sequence: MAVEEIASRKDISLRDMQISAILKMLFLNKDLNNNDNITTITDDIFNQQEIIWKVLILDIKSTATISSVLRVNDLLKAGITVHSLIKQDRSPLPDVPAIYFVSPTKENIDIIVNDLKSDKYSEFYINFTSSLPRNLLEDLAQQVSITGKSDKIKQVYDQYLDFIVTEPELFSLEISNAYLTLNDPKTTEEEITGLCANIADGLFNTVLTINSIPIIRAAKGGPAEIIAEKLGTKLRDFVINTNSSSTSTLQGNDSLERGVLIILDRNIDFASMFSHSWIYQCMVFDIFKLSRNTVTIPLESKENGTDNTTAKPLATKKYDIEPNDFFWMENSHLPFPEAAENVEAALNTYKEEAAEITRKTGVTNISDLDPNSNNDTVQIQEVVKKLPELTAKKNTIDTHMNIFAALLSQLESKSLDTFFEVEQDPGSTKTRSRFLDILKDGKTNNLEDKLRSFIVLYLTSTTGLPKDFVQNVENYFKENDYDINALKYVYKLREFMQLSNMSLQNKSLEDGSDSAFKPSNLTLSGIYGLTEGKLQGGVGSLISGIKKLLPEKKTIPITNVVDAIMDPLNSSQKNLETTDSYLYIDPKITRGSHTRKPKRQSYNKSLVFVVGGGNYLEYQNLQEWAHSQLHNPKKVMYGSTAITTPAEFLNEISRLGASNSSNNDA
Assay: pull-down

- binding result: binds
B1: GST-Sed5 cytoplasmic domain (domain or fragment, S. cerevisiae, UniProt Q01590 1-319, looked up)
chain: MNIKDRTSEFQQSVLSYKKRNKNFREQQRERLQEKESENFANNTTGNGKSVSEFQKKASGIAHEISSTAQLLSKLAVLAKRKPMFNDNPVEIAELSFLIKRKIYAIEQSLVQLSQLKKTDVNGNTSNQSSKQPSAVQHSKNVVNLLNTQMKNISGSFKDVLEERQRLEMANKDRWQKLTTDTGHAPADDQTQSNHAADLTTYNNSNPFMTSLLDESSEKNNNSSNQGELSFPQNDSQLMLMEEGQLSNNVYLQERNRAVETIESTIQEVGNLFQQLASMVQEQGEVIQRIDANVDDIDLNISGAQRELLKYFDRIKSNR
